Results: patent US20170224620A1 (Pfizer, published 2017)
Bridges are numbered along the chain shown (N, C = ends). Where no end group is shown, it is not given here. [ ]: non-standard residue; d: D form. hCys = N[C@@H](CCS)C(=O)O; F(pg) = not defined here; Pra = C#CC[C@H](N)C(=O)O

B1: P2-51 (peptide)
peptide: H-DP[hCys]TWEVWGRECLQGG[Pra]G-NH2
modifications: disulfide 3-12
SMILES: C#CC[C@H](NC(=O)CNC(=O)CNC(=O)[C@H](CCC(N)=O)NC(=O)[C@H](CC(C)C)NC(=O)[C@@H]1CSSCC[C@H](NC(=O)[C@@H]2CCCN2C(=O)[C@@H](N)CC(=O)O)C(=O)N[C@@H]([C@@H](C)O)C(=O)N[C@@H](Cc2c[nH]c3ccccc23)C(=O)N[C@@H](CCC(=O)O)C(=O)N[C@@H](C(C)C)C(=O)N[C@@H](Cc2c[nH]c3ccccc23)C(=O)NCC(=O)N[C@@H](CCCNC(=N)N)C(=O)N[C@@H](CCC(=O)O)C(=O)N1)C(=O)NCC(N)=O
B2: P2-32 (peptide)
peptide: H-DPCTWRVWGRECLQGG[Pra]G-NH2
modifications: disulfide 3-12
SMILES: C#CC[C@H](NC(=O)CNC(=O)CNC(=O)[C@H](CCC(N)=O)NC(=O)[C@H](CC(C)C)NC(=O)[C@@H]1CSSC[C@H](NC(=O)[C@@H]2CCCN2C(=O)[C@@H](N)CC(=O)O)C(=O)N[C@@H]([C@@H](C)O)C(=O)N[C@@H](Cc2c[nH]c3ccccc23)C(=O)N[C@@H](CCCNC(=N)N)C(=O)N[C@@H](C(C)C)C(=O)N[C@@H](Cc2c[nH]c3ccccc23)C(=O)NCC(=O)N[C@@H](CCCNC(=N)N)C(=O)N[C@@H](CCC(=O)O)C(=O)N1)C(=O)NCC(N)=O
B3: P2-46 (peptide)
peptide: H-DPCTWEVWGKECLQGG[Pra]G-NH2
modifications: disulfide 3-12
B4: P2-37 (peptide)
peptide: H-DPCTWELWGRECLQGG[Pra]G-NH2
modifications: disulfide 3-12
SMILES: C#CC[C@H](NC(=O)CNC(=O)CNC(=O)[C@H](CCC(N)=O)NC(=O)[C@H](CC(C)C)NC(=O)[C@@H]1CSSC[C@H](NC(=O)[C@@H]2CCCN2C(=O)[C@@H](N)CC(=O)O)C(=O)N[C@@H]([C@@H](C)O)C(=O)N[C@@H](Cc2c[nH]c3ccccc23)C(=O)N[C@@H](CCC(=O)O)C(=O)N[C@@H](CC(C)C)C(=O)N[C@@H](Cc2c[nH]c3ccccc23)C(=O)NCC(=O)N[C@@H](CCCNC(=N)N)C(=O)N[C@@H](CCC(=O)O)C(=O)N1)C(=O)NCC(N)=O
B5: P2-33 (peptide)
peptide: H-DPCTWGVWGRECLQGG[Pra]G-NH2
modifications: disulfide 3-12
SMILES: C#CC[C@H](NC(=O)CNC(=O)CNC(=O)[C@H](CCC(N)=O)NC(=O)[C@H](CC(C)C)NC(=O)[C@@H]1CSSC[C@H](NC(=O)[C@@H]2CCCN2C(=O)[C@@H](N)CC(=O)O)C(=O)N[C@@H]([C@@H](C)O)C(=O)N[C@@H](Cc2c[nH]c3ccccc23)C(=O)NCC(=O)N[C@@H](C(C)C)C(=O)N[C@@H](Cc2c[nH]c3ccccc23)C(=O)NCC(=O)N[C@@H](CCCNC(=N)N)C(=O)N[C@@H](CCC(=O)O)C(=O)N1)C(=O)NCC(N)=O
B6: P2-40 (peptide)
peptide: H-DPCTWEVFGRECLQGG[Pra]G-NH2
modifications: disulfide 3-12
SMILES: C#CC[C@H](NC(=O)CNC(=O)CNC(=O)[C@H](CCC(N)=O)NC(=O)[C@H](CC(C)C)NC(=O)[C@@H]1CSSC[C@H](NC(=O)[C@@H]2CCCN2C(=O)[C@@H](N)CC(=O)O)C(=O)N[C@@H]([C@@H](C)O)C(=O)N[C@@H](Cc2c[nH]c3ccccc23)C(=O)N[C@@H](CCC(=O)O)C(=O)N[C@@H](C(C)C)C(=O)N[C@@H](Cc2ccccc2)C(=O)NCC(=O)N[C@@H](CCCNC(=N)N)C(=O)N[C@@H](CCC(=O)O)C(=O)N1)C(=O)NCC(N)=O
B7: P2-36 (peptide)
peptide: H-DPCTWEIWGRECLQGG[Pra]G-NH2
modifications: disulfide 3-12
SMILES: C#CC[C@H](NC(=O)CNC(=O)CNC(=O)[C@H](CCC(N)=O)NC(=O)[C@H](CC(C)C)NC(=O)[C@@H]1CSSC[C@H](NC(=O)[C@@H]2CCCN2C(=O)[C@@H](N)CC(=O)O)C(=O)N[C@@H]([C@@H](C)O)C(=O)N[C@@H](Cc2c[nH]c3ccccc23)C(=O)N[C@@H](CCC(=O)O)C(=O)N[C@@H]([C@@H](C)CC)C(=O)N[C@@H](Cc2c[nH]c3ccccc23)C(=O)NCC(=O)N[C@@H](CCCNC(=N)N)C(=O)N[C@@H](CCC(=O)O)C(=O)N1)C(=O)NCC(N)=O
B8: P2-38 (peptide)
peptide: H-DPCTWETWGRECLQGG[Pra]G-NH2
modifications: disulfide 3-12
SMILES: C#CC[C@H](NC(=O)CNC(=O)CNC(=O)[C@H](CCC(N)=O)NC(=O)[C@H](CC(C)C)NC(=O)[C@@H]1CSSC[C@H](NC(=O)[C@@H]2CCCN2C(=O)[C@@H](N)CC(=O)O)C(=O)N[C@@H]([C@@H](C)O)C(=O)N[C@@H](Cc2c[nH]c3ccccc23)C(=O)N[C@@H](CCC(=O)O)C(=O)N[C@@H]([C@@H](C)O)C(=O)N[C@@H](Cc2c[nH]c3ccccc23)C(=O)NCC(=O)N[C@@H](CCCNC(=N)N)C(=O)N[C@@H](CCC(=O)O)C(=O)N1)C(=O)NCC(N)=O
B9: P2-39 (peptide)
peptide: H-DPCTWEVAGRECLQGG[Pra]G-NH2
modifications: disulfide 3-12
SMILES: C#CC[C@H](NC(=O)CNC(=O)CNC(=O)[C@H](CCC(N)=O)NC(=O)[C@H](CC(C)C)NC(=O)[C@@H]1CSSC[C@H](NC(=O)[C@@H]2CCCN2C(=O)[C@@H](N)CC(=O)O)C(=O)N[C@@H]([C@@H](C)O)C(=O)N[C@@H](Cc2c[nH]c3ccccc23)C(=O)N[C@@H](CCC(=O)O)C(=O)N[C@@H](C(C)C)C(=O)N[C@@H](C)C(=O)NCC(=O)N[C@@H](CCCNC(=N)N)C(=O)N[C@@H](CCC(=O)O)C(=O)N1)C(=O)NCC(N)=O
B10: P2-49 (peptide)
peptide: H-DPCTWEVWGRDCLQGG[Pra]G-NH2
modifications: disulfide 3-12
SMILES: C#CC[C@H](NC(=O)CNC(=O)CNC(=O)[C@H](CCC(N)=O)NC(=O)[C@H](CC(C)C)NC(=O)[C@@H]1CSSC[C@H](NC(=O)[C@@H]2CCCN2C(=O)[C@@H](N)CC(=O)O)C(=O)N[C@@H]([C@@H](C)O)C(=O)N[C@@H](Cc2c[nH]c3ccccc23)C(=O)N[C@@H](CCC(=O)O)C(=O)N[C@@H](C(C)C)C(=O)N[C@@H](Cc2c[nH]c3ccccc23)C(=O)NCC(=O)N[C@@H](CCCNC(=N)N)C(=O)N[C@@H](CC(=O)O)C(=O)N1)C(=O)NCC(N)=O
B11: P2-45 (peptide)
peptide: H-DPCTWEVWGAECLQGG[Pra]G-NH2
modifications: disulfide 3-12
B12: P2-47 (peptide)
peptide: H-DPCTWEVWG[F(pg)]ECLQGG[Pra]G-NH2
modifications: disulfide 3-12; reading uncertain
B13: P2-3 (peptide)
peptide: DPATWEVWGRECLQ-{propargyl glycine moiety (p-0168)}
modifications: not fully specified (N-terminus)
notes: also called P2 Ala scan, AA position 3
B14: P2-8 (peptide)
peptide: DPCTWEVAGRECLQ
modifications: disulfide 3-12; not fully specified (N-terminus, C-terminus); also: C-terminal propargylglycine moiety
notes: also called P2 Ala scan, AA position 8
B15: P2-12 (peptide)
peptide: Ac-DPCTWEVWGREALQ
modifications: also: C-terminal propargylglycine moiety, not placed
notes: also called P2 Ala scan, AA position 12
B16: P2-27 (peptide)
peptide: H-DPC[Pra]WEVWGRECLQ-NH2
modifications: disulfide 3-12
SMILES: C#CC[C@@H]1NC(=O)[C@@H](NC(=O)[C@@H]2CCCN2C(=O)[C@@H](N)CC(=O)O)CSSC[C@@H](C(=O)N[C@@H](CC(C)C)C(=O)N[C@@H](CCC(N)=O)C(N)=O)NC(=O)[C@H](CCC(=O)O)NC(=O)[C@H](CCCNC(=N)N)NC(=O)CNC(=O)[C@H](Cc2c[nH]c3ccccc23)NC(=O)[C@H](C(C)C)NC(=O)[C@H](CCC(=O)O)NC(=O)[C@H](Cc2c[nH]c3ccccc23)NC1=O
B17: P2-70 (peptide)
peptide: DPCTFEVWGRECLQ
modifications: disulfide 3-12; not fully specified (N-terminus, C-terminus)
notes: P2 backbone; also called P2 with Phenylalanine at W5
B18: P2-31 (peptide)
peptide: H-DPCTW[Pra]VWGRECLQ-NH2
modifications: disulfide 3-12
SMILES: C#CC[C@@H]1NC(=O)[C@H](Cc2c[nH]c3ccccc23)NC(=O)[C@H]([C@@H](C)O)NC(=O)[C@@H](NC(=O)[C@@H]2CCCN2C(=O)[C@@H](N)CC(=O)O)CSSC[C@@H](C(=O)N[C@@H](CC(C)C)C(=O)N[C@@H](CCC(N)=O)C(N)=O)NC(=O)[C@H](CCC(=O)O)NC(=O)[C@H](CCCNC(=N)N)NC(=O)CNC(=O)[C@H](Cc2c[nH]c3ccccc23)NC(=O)[C@H](C(C)C)NC1=O
B19: P2-35 (peptide)
peptide: H-DPCTWE[Pra]WGRECLQ-NH2
modifications: disulfide 3-12
SMILES: C#CC[C@@H]1NC(=O)[C@H](CCC(=O)O)NC(=O)[C@H](Cc2c[nH]c3ccccc23)NC(=O)[C@H]([C@@H](C)O)NC(=O)[C@@H](NC(=O)[C@@H]2CCCN2C(=O)[C@@H](N)CC(=O)O)CSSC[C@@H](C(=O)N[C@@H](CC(C)C)C(=O)N[C@@H](CCC(N)=O)C(N)=O)NC(=O)[C@H](CCC(=O)O)NC(=O)[C@H](CCCNC(=N)N)NC(=O)CNC(=O)[C@H](Cc2c[nH]c3ccccc23)NC1=O

molecular target: T1, Fc tagged recombinant human EGFR (rhEGFR-Fc, R&D systems, Cat#344-ER-050) (human, UniProt P00533 25-645); assay: SPR
T1 construct: Bought protein; also called apo-EGFR; not shown: Fc tag
Description: Surface plasmon resonance (SPR) binding studies were carried out on a Biacore T200 instrument (GE Healthcare). […] The contact time and resulting amount of rhEGFR-Fc capture was varied based on the nature of the analyte, namely whether it was a peptide or nanoparticle.
Peptide binding assays were carried out in 10 mM PBS buffer supplemented with 0.05% surfactant P20 and 5% DMSO by volume, at 25° C. Peptides were injected over the rhEGFR-Fc surface for 60 s, followed by dissociation (buffer injection) for 60 s and regeneration with a 10 s pulse of 3M MgCl₂. A fresh rhEGFR-Fc surface was generated for each concentration of each peptide tested. Peptide binding data was analyzed by fitting to a 1:1 Langmuir kinetic model to obtain the on-rate (kₐ), off-rate (kd) and/or equilibrium binding constant (KD) of the interaction.

Q: Which “Result (affinity relative to KD of P2)” value does the source give for B1 here?
A: 8.88 ratio

Q: B2 was tested. Which “KD/P2 KD” value did it give?
A: 1.21 ratio

Q: With B3 as the binder, how does the “KD/P2 KD” value read?
A: 13.9 ratio

Q: How did the “KD/P2 KD” value turn out when B4 was run?
A: 10.1 ratio

Q: With B5 as the binder, how does the “KD/P2 KD” value read?
A: 42.7 ratio

Q: Does B6 bind?
A: binds

Q: With B7 as the binder, how does the “KD/P2 KD” value read?
A: 3.48 ratio

Q: Which “KD/P2 KD” value does the source give for B8 here?
A: 12.3 ratio

Q: Does B9 bind?
A: no binding

Q: Which “KD/P2 KD” value does the source give for B10 here?
A: 3.39 ratio

Q: Does B11 bind?
A: binds

Q: With B12 as the binder, how does the “KD/P2 KD” value read?
A: 37.1 ratio

Q: Does B13 bind?
A: no binding

Q: Does B14 bind?
A: no binding

Q: Does B15 bind?
A: no binding

Q: For B16, which “KD/P2 KD” value is on record?
A: 5.4 ratio

Q: With B17 as the binder, how does the “KD Relative to P2” value read?
A: 9.24 ratio

Q: B18 was tested. Which “KD/P2 KD” value did it give?
A: 0.86 ratio

Q: Which “KD/P2 KD” value does the source give for B19 here?
A: 5.69 ratio
